Reference: patent US20120172293A1 (Takeda / Millennium, published 2012)
Starred links: 1 amine or outer side, 2 acyl side, 3 side chain; linkers in the order of their positions; H or OH if unused. Non-standard residues stand in square brackets, D forms with d. No end group written: not given here. *: point of attachment. Tyr(Me) = O-methyltyrosine, COc1ccc(C[C@H](N[*:1])C(=O)[*:2])cc1; Thr(Me) = O-methylthreonine, CO[C@H](C)[C@H](N[*:1])C(=O)[*:2]; Ala(piperidin-4-yl) = O=C([C@H](CC1CCN([*:3])CC1)N[*:1])[*:2]; Phe(4-F) = N[C@@H](Cc1ccc(F)cc1)C(=O)O; 2Nal = N[C@@H](Cc1ccc2ccccc2c1)C(=O)O; Amidino = amidino group, N=C(N)*; Cha = N[C@@H](CC1CCCCC1)C(=O)O; 4Amb = NCc1ccc(C(=O)O)cc1; Nva = CCC[C@H](N)C(=O)O; 2Abz = Nc1ccccc1C(=O)O; Dap = NC[C@H](N)C(=O)O; Inp = O=C(O)C1CCNCC1; Bz = O=C(c1ccccc1)*

Assays:
[1] = biological target: human Y2 receptor (human) (UniProt P49146); assay: cell-based or functional assay
[2] = biological target: human Y2 receptor (human) (UniProt P49146); assay: RBA: [125I]-PYY displacement, hY2R/CHO membranes
[3] = biological target: T1, human Y2 receptor (human, UniProt P49146 1-381); assay: cell-based or functional assay
T1 sequence (looked up): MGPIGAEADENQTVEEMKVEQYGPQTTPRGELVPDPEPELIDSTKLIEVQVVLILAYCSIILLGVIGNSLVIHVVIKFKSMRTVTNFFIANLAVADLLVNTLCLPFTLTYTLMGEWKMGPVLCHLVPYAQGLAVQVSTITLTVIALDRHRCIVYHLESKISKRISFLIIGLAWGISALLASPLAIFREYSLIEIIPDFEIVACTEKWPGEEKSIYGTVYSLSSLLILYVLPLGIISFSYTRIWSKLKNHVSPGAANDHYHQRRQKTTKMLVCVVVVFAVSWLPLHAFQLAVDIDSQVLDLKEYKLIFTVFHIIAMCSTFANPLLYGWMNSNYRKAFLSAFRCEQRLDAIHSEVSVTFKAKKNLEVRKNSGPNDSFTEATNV

[4] = biological target: T1, human Y2 receptor; assay: RBA: [125I]-PYY displacement, hY2R/CHO membranes
Outline: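 Bound radioligand was collected by filtration on PEI-treated GF/C filters, washed with Tris/MgCl₂/NaCl/CHAPS buffer pH 7.4, and counted by scintillation; IC₅₀ values were calculated.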

“[βAla23, D-Pro24, Cha27,28,36, Aib31]-PYY(23-36) (peptide)” was tested, and the GBA EC50 Ratio (vs PYY(3-36)), [35S]GTPγS [1] was 1.2 and the IC50 Ratio (vs PYY(3-36)) [2] was 1.7.

“Ac-[D-Iva23, D-Pro24, Cha27,28,36, Aib31]-PYY(23-36) (peptide)” was tested, and the GBA EC50 Ratio (vs PYY(3-36)), [35S]GTPγS [1] was 31 and the IC50 Ratio (vs PYY(3-36)) [2] was 20.

“Ac-[Aad23, D-Pro24, Cha27,28,36, Aib31]-PYY(23-36) (peptide)” was tested, and the GBA EC50 Ratio (vs PYY(3-36)), [35S]GTPγS [1] was 1.2 and the IC50 Ratio (vs PYY(3-36)) [2] was 2.8.

“[N(2-hydroxyethyl)Gly23, D-Pro24, Cha27,28,36, Aib31]-PYY(23-36) (peptide)” was tested, and the GBA EC50 Ratio (vs PYY(3-36)), [35S]GTPγS [1] was 1.2 and the IC50 Ratio (vs PYY(3-36)) [2] was 2.

Molecule “[(PEG2)23, D-Pro24, Cha27,28,36, Aib31]-PYY(23-36) (peptide)” has a GBA EC50 Ratio (vs PYY(3-36)), [35S]GTPγS [1] of 0.9 and an IC50 Ratio (vs PYY(3-36)) [2] of 0.9.

B1: Benzoyl-[Ala(4Pip)27, Ile28,31, Trp30, Cha36]-PYY(25-36) (peptide)
peptide: Bz-RH[Ala(piperidin-4-yl)]INWITRQR[Cha]-NH2
modifications: also: Ala(4Pip) D or L form not assigned (later peak)
notes: Ala(4Pip) is any of D-form and L-form; also called compound No. 66
With B1 the “GBA EC50 Ratio (vs PYY(3-36)), [35S]GTPγS” value (from here on “GBA EC50 Ratio”) [3] was 2.9 ratio and the “IC50 Ratio (vs PYY(3-36))” value [4] was 4.8 ratio.

B2: Benzoyl-[Dap27, Ile28,31, Trp30, Cha36]-PYY(25-36) (peptide)
peptide: Bz-RH[Dap]INWITRQR[Cha]-NH2
SMILES: CC[C@H](C)[C@H](NC(=O)[C@H](CN)NC(=O)[C@H](Cc1c[nH]cn1)NC(=O)[C@H](CCCNC(=N)N)NC(=O)c1ccccc1)C(=O)N[C@@H](CC(N)=O)C(=O)N[C@@H](Cc1c[nH]c2ccccc12)C(=O)N[C@H](C(=O)N[C@H](C(=O)N[C@@H](CCCNC(=N)N)C(=O)N[C@@H](CCC(N)=O)C(=O)N[C@@H](CCCNC(=N)N)C(=O)N[C@@H](CC1CCCCC1)C(N)=O)[C@@H](C)O)[C@@H](C)CC
notes: also called compound No. 67
With B2 the “GBA EC50 Ratio” value [3] was 22 ratio and the “IC50 Ratio (vs PYY(3-36))” value [4] was 34 ratio.

B3: 4-Aminomethylbenzoyl-[Ala26, Ile28,31, Phe(4F)30]-PYY(25-36) (peptide)
peptide: [4Amb]RAYIN[Phe(4-F)]ITRQRY-NH2
modifications: N-terminus assumed
SMILES: CC[C@H](C)[C@H](NC(=O)[C@H](Cc1ccc(O)cc1)NC(=O)[C@H](C)NC(=O)[C@H](CCCNC(=N)N)NC(=O)c1ccc(CN)cc1)C(=O)N[C@@H](CC(N)=O)C(=O)N[C@@H](Cc1ccc(F)cc1)C(=O)N[C@H](C(=O)N[C@H](C(=O)N[C@@H](CCCNC(=N)N)C(=O)N[C@@H](CCC(N)=O)C(=O)N[C@@H](CCCNC(=N)N)C(=O)N[C@@H](Cc1ccc(O)cc1)C(N)=O)[C@@H](C)O)[C@@H](C)CC
notes: also called compound No. 58
In the case of B3, the “GBA EC50 Ratio” value [3] is reported as 2.9 ratio and the “IC50 Ratio (vs PYY(3-36))” value [4] is reported as 4.1 ratio.

B4: 4-Aminomethylbenzoyl-[Ala26, Ile28,31, Nva32]-PYY(25-36) (peptide)
peptide: [4Amb]RAYINLI[Nva]RQRY-NH2
modifications: N-terminus assumed
SMILES: CCC[C@H](NC(=O)[C@@H](NC(=O)[C@H](CC(C)C)NC(=O)[C@H](CC(N)=O)NC(=O)[C@@H](NC(=O)[C@H](Cc1ccc(O)cc1)NC(=O)[C@H](C)NC(=O)[C@H](CCCNC(=N)N)NC(=O)c1ccc(CN)cc1)[C@@H](C)CC)[C@@H](C)CC)C(=O)N[C@@H](CCCNC(=N)N)C(=O)N[C@@H](CCC(N)=O)C(=O)N[C@@H](CCCNC(=N)N)C(=O)N[C@@H](Cc1ccc(O)cc1)C(N)=O
notes: also called compound No. 61
B4 was tested, and the “GBA EC50 Ratio” value [3] was 17 ratio and the “IC50 Ratio (vs PYY(3-36))” value [4] was 29 ratio.

B5: 4-Aminomethylbenzoyl-[Ala26, Ile28,31, Tyr(Me)36]-PYY(25-36) (peptide)
peptide: [4Amb]RAYINLITRQR[Tyr(Me)]-NH2
modifications: N-terminus assumed
SMILES: CC[C@H](C)[C@H](NC(=O)[C@H](Cc1ccc(O)cc1)NC(=O)[C@H](C)NC(=O)[C@H](CCCNC(=N)N)NC(=O)c1ccc(CN)cc1)C(=O)N[C@@H](CC(N)=O)C(=O)N[C@@H](CC(C)C)C(=O)N[C@H](C(=O)N[C@H](C(=O)N[C@@H](CCCNC(=N)N)C(=O)N[C@@H](CCC(N)=O)C(=O)N[C@@H](CCCNC(=N)N)C(=O)N[C@@H](Cc1ccc(OC)cc1)C(N)=O)[C@@H](C)O)[C@@H](C)CC
notes: also called compound No. 7
In the case of B5, the “GBA EC50 Ratio” value [3] is reported as 4.7 ratio and the “IC50 Ratio (vs PYY(3-36))” value [4] is reported as 5 ratio.

B6: [Abz(2)24, Cha27,36, Ile28,31, Trp30]-PYY(24-36) (peptide)
peptide: [2Abz]RH[Cha]INWITRQR[Cha]-NH2
modifications: N-terminus assumed
SMILES: CC[C@H](C)[C@H](NC(=O)[C@H](CC1CCCCC1)NC(=O)[C@H](Cc1c[nH]cn1)NC(=O)[C@H](CCCNC(=N)N)NC(=O)c1ccccc1N)C(=O)N[C@@H](CC(N)=O)C(=O)N[C@@H](Cc1c[nH]c2ccccc12)C(=O)N[C@H](C(=O)N[C@H](C(=O)N[C@@H](CCCNC(=N)N)C(=O)N[C@@H](CCC(N)=O)C(=O)N[C@@H](CCCNC(=N)N)C(=O)N[C@@H](CC1CCCCC1)C(N)=O)[C@@H](C)O)[C@@H](C)CC
notes: also called compound No. 68
With B6 the “GBA EC50 Ratio” value [3] was 15 ratio and the “IC50 Ratio (vs PYY(3-36))” value [4] was 19 ratio.

B7: Benzoyl-[Cha27,36, Ile28, Arg31]-PYY(25-36) (peptide)
peptide: Bz-RH[Cha]INLRTRQR[Cha]-NH2
SMILES: CC[C@H](C)[C@H](NC(=O)[C@H](CC1CCCCC1)NC(=O)[C@H](Cc1c[nH]cn1)NC(=O)[C@H](CCCNC(=N)N)NC(=O)c1ccccc1)C(=O)N[C@@H](CC(N)=O)C(=O)N[C@@H](CC(C)C)C(=O)N[C@@H](CCCNC(=N)N)C(=O)N[C@H](C(=O)N[C@@H](CCCNC(=N)N)C(=O)N[C@@H](CCC(N)=O)C(=O)N[C@@H](CCCNC(=N)N)C(=O)N[C@@H](CC1CCCCC1)C(N)=O)[C@@H](C)O
notes: also called compound No. 65
In the case of B7, the “GBA EC50 Ratio” value [3] is reported as 16 ratio and the “IC50 Ratio (vs PYY(3-36))” value [4] is reported as 15 ratio.

For Ac-YYASLRAYINLITRQRY-NH2 (also called compound No. 5) [Ac-[Ala26, Ile28,31]-PYY(20-36)], the “GBA EC50 Ratio” value [3] was 8.1 ratio and the “IC50 Ratio (vs PYY(3-36))” value [4] was 9.8 ratio.

Bz-RAYINLI[Thr(Me)]RQRY-NH2 (also called compound No. 74) [4-Aminomethylbenzoyl-[Ala26, Ile28,31, Thr(Me)32]-PYY(25-36)] was tested, and the “GBA EC50 Ratio” value [3] was 24 ratio and the “IC50 Ratio (vs PYY(3-36))” value [4] was 14 ratio.

B8: Amidino-[Gly23, Pic(4)24, Cha27,36, Ile 28,31, Trp30]-PYY(23-36) (peptide)
peptide: Amidino-G[Inp]RH[Cha]INWITRQR[Cha]-NH2
SMILES: CC[C@H](C)[C@H](NC(=O)[C@H](CC1CCCCC1)NC(=O)[C@H](Cc1c[nH]cn1)NC(=O)[C@H](CCCNC(=N)N)NC(=O)C1CCN(C(=O)CNC(=N)N)CC1)C(=O)N[C@@H](CC(N)=O)C(=O)N[C@@H](Cc1c[nH]c2ccccc12)C(=O)N[C@H](C(=O)N[C@H](C(=O)N[C@@H](CCCNC(=N)N)C(=O)N[C@@H](CCC(N)=O)C(=O)N[C@@H](CCCNC(=N)N)C(=O)N[C@@H](CC1CCCCC1)C(N)=O)[C@@H](C)O)[C@@H](C)CC
notes: also called compound No. 96
With B8 the “GBA EC50 Ratio” value [3] was 1.1 ratio and the “IC50 Ratio (vs PYY(3-36))” value [4] was 1.9 ratio.

B9: 4-Aminomethylbenzoyl-[Ala26, Ile28,31, Nal(2)30]-PYY(25-36) (peptide)
peptide: [4Amb]RAYIN[2Nal]ITRQRY-NH2
modifications: N-terminus assumed
SMILES: CC[C@H](C)[C@H](NC(=O)[C@H](Cc1ccc(O)cc1)NC(=O)[C@H](C)NC(=O)[C@H](CCCNC(=N)N)NC(=O)c1ccc(CN)cc1)C(=O)N[C@@H](CC(N)=O)C(=O)N[C@@H](Cc1ccc2ccccc2c1)C(=O)N[C@H](C(=O)N[C@H](C(=O)N[C@@H](CCCNC(=N)N)C(=O)N[C@@H](CCC(N)=O)C(=O)N[C@@H](CCCNC(=N)N)C(=O)N[C@@H](Cc1ccc(O)cc1)C(N)=O)[C@@H](C)O)[C@@H](C)CC
notes: also called compound No. 56
In the case of B9, the “GBA EC50 Ratio” value [3] is reported as 2.4 ratio and the “IC50 Ratio (vs PYY(3-36))” value [4] is reported as 4.1 ratio.
